Laboratory results: article PMC4156547

How the values were obtained:
[1] = biological target: HIV-1 gp41^27–194 (HIV-1 (HXB2)); experiment: AUC
[2] = biological target: gp41^27–154 (HIV ectodomain) (HIV-1); experiment: AUC

With HIV-1 gp41^27–194 (domain or fragment) the stoichiometry N [1] was 3.

With “gp41^27–154 (HIV ectodomain) (domain or fragment)” the stoichiometry N [2] was 3.
